B1: TCN-558 (5248_H10b) (antibody, V domains shown)
VH: QVQLVQSGSEVKKPGTSVKVSCTASGSVFTNYGISWVRQAPGQGLEWMGGIIPLFGAAKYAQKFQGRVTITADESTKTVYMELSRLTSKDTAIYFCAKAPRVYEYYFDQWGQGTPVTVSS
VL: EIVMTQFPATLSVSPGERVTLSCRASQSVSNNLAWYQQKPGQPPRLLIYDASTRATGVPAKFSGTGSGTEFTLSISSLQSEDFAVYYCQQYHNWPPSYSFGLGTKLEIK
B2: TCN-553 (5261_C18) (antibody, V domains shown)
VH: QVQVVQSGTEVKKPGSSVKVSCQTSGGRFMSYAITWVRQAPGQGLEWMGGIVPVFGTANYAQKFQGRVTITTDDSTRTAYMELSSLRSEDTAVYYCGFRYGSGYGFDSWGQGTLVTVSS
VL: EIVLTQSPGTLSLSPGERATLSCRASQSVSSSYLAWYQKKPGQAPRLLIYGASTRATGIPDRFTGSGSGTDFTLSISRLEPEDFAVYYCQHFGTSVFTFGGGTKVEIK
B3: TCN-521 (3280_D18) (antibody, V domains shown)
VH: EVQLVQSGGGLVQPGGSLRLACVVSGFTVTSNYITWVRQAPGKGLEWVSVIYSHGRAYYSASVNGRFTISRHTSKNTVYLEMNSLRPEDTAVYYCAGGGLVGGYDEYFFDYWGQGTLATVSS
VL: ETVLTQSPGTLSLTPGERATLSCRVGQSVSGSHLAWYQQKPGQAPRLLIYGASSRATGIPDRFGGSVSGTDFTLTISRLEPEDSAVYYCQQYGDSRYTFGQGTKLEIK
B4: TCN-528 (5087_P17) (antibody, V domains shown)
VH: QVQLVQSGSEVKKPGASVKVSCKASGYTFTNYDINWIRQAPGQGLEWMGWINPNSGTTGSAQRFQGRVTITVDTSITTVYMELSSLRSDDTAIYYCARGRELLRLQHFLTDSQSERRDCFDPWGQGTLVTVSS
VL: DIQMTQSPSSLSASVGDRVTITCRANQDIGIYLNWYQQNPGKVPKLLLHGASSLQGGVPSRFSASGSGTDFTLTIHSLQPEDLATYYCQQSRRLPYTFGQGTRVELK
B5: TCN-527 (5086_C06) (antibody, V domains shown)
VH: QVQLQESGPGLVKPSETLSLNCAVSGGSISNYYWSWIRQPPGKGLEWIGYISYNGRPKYNPSLTSRVTISVDTSKDQFSLELRSVTAADTALYYCARETRFGELLSPYDAFEIWGQGTMVTVSS
VL: DIQMTQSPSSLSASVGDRVTMTCRASQNIRSYLNWYQQRPGTAPKLLIYAASTLHSGVPSRFSGGGSGTDFTLTINNLQPEDFASYYCQQSYDNPQTFGQGTKVEIK
B6: TCN-550 (5096_F06) (antibody, V domains shown)
VH: QVQLQESGPGLVKPSETLSLTCTVSGASINSHYWSWIRQPPGKGLEWIGYVYYSGSTTYNPSLKSRVTLSVDTSKNQFSLNLSSVTAADTAFYYCARHPYDVLTGSGDWFDPWGQGTLVTVSS
VL: SYVLTQAPSVSVAPGQTARITCGGNAIGSKKVHWYQHKAGQAPVLVVYDDTDRPSGIPERFSGSNSWSTATLTINRVEAGDEADYYCQVWDFTIDHVVFGGGTKLTVL
B7: TCN-543 (5081_G23) (antibody, V domains shown)
VH: QVHLVQSGAEVRKPGDSVKVSCKTSGYTFSTYPVAWVRQVPGQGLEWMGWISTYNGNTNFAQNFQGRVTLTTDTTTNTAYMEVRSLKFDDTAVYYCARVEGSYRDFWNNQNRFDPWGQGTLVTVSS
VL: SYVLTQPPSVSVAPGQTARISCGGSNIGGKSVHWYQQKPGQAPVLVVYDDSGRPSGIPERFSGSNSGDTATLTISRVEAGDEADYFCQVWDNFGGVFGTGTKVTVL
B8: TCN-546 (5089_L08) (antibody, V domains shown)
VH: QVQLQQWGAGLLKPSETLSLTCGVYGGSLSDYYWSWIRQPPGKGLEWIGEINHSGGTNYNPSLKRRVTISVDTSKKQFSLKMNSVTAADTAVYYCARGTDPDTEVYCRAGNCAAFDFWGQGTLVTVSS
VL: EIVLTQSPGTLSLSPGERATLSCRASHFVIGRAVAWYQQKPGQAPRLLIYGASSRATGIPDRFSGSGSGTDFTLTISRLETEDFAVFYCQHYGSSPRYAFGQGTKLEIK

Key:
Conditions in all cases: remark: other sources report otherwise
[1] = biological target: recombinant soluble homotrimeric HA, A/Netherlands/219/03 (H7N7) (influenza A virus A/Netherlands/219/03 (H7N7)); assay: microarray, trimeric HA, transfection supernatant
[2] = biological target: recombinant soluble homotrimeric HA, A/chicken/Vietnam/NCVD-016/08 (H5N1) (influenza A virus A/chicken/Vietnam/NCVD-016/2008 (H5N1)); assay: microarray, trimeric HA, transfection supernatant
[3] = biological target: recombinant soluble homotrimeric HA, A/northern shoveler/California/HKWF115/2007 (H6N1) (influenza A virus A/northern shoveler/California/HKWF115/2007 (H6N1)); assay: microarray, trimeric HA, transfection supernatant
[4] = biological target: recombinant soluble homotrimeric HA of A/Anhui/1/05 (H5N1) (Influenza A virus A/Anhui/1/2005 (H5N1)); assay: HA microarray, BCC supernatant
[5] = biological target: recombinant soluble homotrimeric HA of A/California/4/09 (H1N1) (Influenza A virus A/California/04/2009 (H1N1)); assay: HA microarray, BCC supernatant
[6] = biological target: recombinant soluble homotrimeric HA of A/Egypt/3300-NAMRU3/08 (H5N1) (Influenza A virus A/Egypt/3300-NAMRU3/2008 (H5N1)); assay: HA microarray, BCC supernatant
[7] = biological target: recombinant soluble homotrimeric HA of A/Indonesia/5/05 (H5N1) (Influenza A virus A/Indonesia/5/2005 (H5N1)); assay: HA microarray, BCC supernatant
[8] = biological target: recombinant soluble homotrimeric HA of A/Japan/305/57 (H2N2) (Influenza A virus A/Japan/305/1957 (H2N2)); assay: HA microarray, BCC supernatant
[9] = biological target: recombinant soluble homotrimeric HA of A/Solomon Islands/3/06 (H1N1) (Influenza A virus A/Solomon Islands/3/2006 (H1N1)); assay: HA microarray, BCC supernatant
[10] = biological target: recombinant soluble homotrimeric HA of A/Vietnam/1203/04 (H5N1) (Influenza A virus A/Vietnam/1203/2004 (H5N1)); assay: HA microarray, BCC supernatant
[11] = biological target: recombinant soluble homotrimeric HA of A/Wisconsin/67/05 (H3N2) (Influenza A virus A/Wisconsin/67/2005 (H3N2)); assay: HA microarray, BCC supernatant
[12] = biological target: recombinant soluble homotrimeric HA of A/chicken/Vietnam/NCVD-016/08 (H5N1) (Influenza A virus A/chicken/Vietnam/NCVD-016/2008 (H5N1)); assay: HA microarray, BCC supernatant
[13] = biological target: recombinant soluble homotrimeric HA of A/duck/Yangzhou/02/2005 (H8N4) (Influenza A virus A/duck/Yangzhou/02/2005 (H8N4)); assay: HA microarray, BCC supernatant
[14] = biological target: recombinant soluble homotrimeric HA of A/northern shoveler/California/HKWF115/2007 (H6N1) (Influenza A virus A/northern shoveler/California/HKWF115/2007 (H6N1)); assay: HA microarray, BCC supernatant
[15] = biological target: recombinant soluble homotrimeric HA of A/swine/Ontario/01911-2/99 (H4N6) (Influenza A virus A/Swine/Ontario/01911-2/99 (H4N6)); assay: HA microarray, BCC supernatant
[16] = biological target: recombinant soluble homotrimeric HA, A/Anhui/1/05 (H5N1) (influenza A virus A/Anhui/1/2005 (H5N1)); assay: microarray, trimeric HA, transfection supernatant
[17] = biological target: recombinant soluble homotrimeric HA, A/Hong Kong/156/97 (H5N1) (influenza A virus A/Hong Kong/156/97 (H5N1)); assay: microarray, trimeric HA, transfection supernatant
[18] = biological target: recombinant soluble homotrimeric HA, A/duck/Yangzhou/02/2005 (H8N4) (influenza A virus A/duck/Yangzhou/02/2005 (H8N4)); assay: microarray, trimeric HA, transfection supernatant
[19] = biological target: recombinant soluble homotrimeric HA of A/Hong Kong/2108/03 (H9N2) (Influenza A virus A/Hong Kong/2108/2003 (H9N2)); assay: HA microarray, BCC supernatant
[20] = biological target: recombinant soluble homotrimeric HA of A/Netherlands/219/03 (H7N7) (Influenza A virus A/Netherlands/219/03 (H7N7)); assay: HA microarray, BCC supernatant

| Binder | Trimeric HA Binding RLU [1] | Trimeric HA Binding RLU [2] | Trimeric HA Binding RLU [3] | Trimeric HA Binding RLU [4] | Trimeric HA Binding RLU [5] | Trimeric HA Binding RLU [6] | Trimeric HA Binding RLU [7] | Trimeric HA Binding RLU [8] | Trimeric HA Binding RLU [9] | Trimeric HA Binding RLU [10] | Trimeric HA Binding RLU [11] | Trimeric HA Binding RLU [12] | Trimeric HA Binding RLU [13] | Trimeric HA Binding RLU [14] | Trimeric HA Binding RLU [15] | Trimeric HA Binding RLU [16] | Trimeric HA Binding RLU [17] | Trimeric HA Binding RLU [18] | Trimeric HA Binding RLU [19] | Trimeric HA Binding RLU [20] |
| --- | --- | --- | --- | --- | --- | --- | --- | --- | --- | --- | --- | --- | --- | --- | --- | --- | --- | --- | --- | --- |
| B1 | 5840 RLU | 33400 RLU | 29400 RLU |  |  |  |  |  |  |  |  |  |  |  |  |  |  |  |  |  |
| B2 |  | 34700 RLU | 32500 RLU | 12600 RLU | 20300 RLU | 18800 RLU | 24400 RLU | 25500 RLU | 16300 RLU | 6560 RLU | 20000 RLU | 24200 RLU | 28000 RLU | 21700 RLU | 2580 RLU | 8550 RLU | 36300 RLU | 12500 RLU |  |  |
| B3 |  |  |  |  |  | 47900 RLU | 31500 RLU | 6730 RLU | 39600 RLU |  |  | 32400 RLU |  | 48000 RLU |  |  |  |  | 93 RLU |  |
| B4 |  |  |  | 49800 RLU | 48800 RLU |  | 42800 RLU | 46400 RLU | 44800 RLU | 45600 RLU | 48800 RLU | 38200 RLU | 38400 RLU | 46800 RLU | 47500 RLU |  |  |  | 42000 RLU | 49300 RLU |
| B5 |  |  |  | 21400 RLU | 28000 RLU |  | 23800 RLU | 19300 RLU | 16500 RLU | 21300 RLU | 5720 RLU | 27000 RLU | 28800 RLU | 30300 RLU | 7690 RLU |  |  |  | 16000 RLU | 8890 RLU |
| B6 |  | 1800 RLU | 2300 RLU | 1210 RLU |  |  | 9100 RLU | 201 RLU | 204 RLU | 277 RLU | 26300 RLU | 361 RLU | 407 RLU |  |  |  | 955 RLU | 4710 RLU | 2280 RLU |  |
| B7 | 12900 RLU | 5880 RLU |  |  | 13100 RLU |  |  |  | 511 RLU |  | 1360 RLU |  |  |  |  |  | 1430 RLU | 13100 RLU |  | 661 RLU |
| B8 |  | 2940 RLU |  | 2040 RLU | 350 RLU |  | 18400 RLU | 520 RLU |  | 349 RLU | 30200 RLU | 421 RLU |  |  |  | 33300 RLU | 1240 RLU | 11400 RLU | 13000 RLU |  |
